Numbered stars: 1 amine (or outer) side, 2 acyl side, 3 side chain; on linkers, the order of the positions; unused ones are H or OH. Side chains are listed from the residue outwards. Ends that are not written are not given here. * marks the point of attachment. γGlu = O=C(O)[C@H](CCC(=O)[*:2])N[*:1]; Palmitoyl = CCCCCCCCCCCCCCCC(=O)*
T1: human glucose-dependent insulinotropic peptide (gastric inhibitory polypeptide) receptor (human) (UniProt P48546)
T1 sequence (looked up): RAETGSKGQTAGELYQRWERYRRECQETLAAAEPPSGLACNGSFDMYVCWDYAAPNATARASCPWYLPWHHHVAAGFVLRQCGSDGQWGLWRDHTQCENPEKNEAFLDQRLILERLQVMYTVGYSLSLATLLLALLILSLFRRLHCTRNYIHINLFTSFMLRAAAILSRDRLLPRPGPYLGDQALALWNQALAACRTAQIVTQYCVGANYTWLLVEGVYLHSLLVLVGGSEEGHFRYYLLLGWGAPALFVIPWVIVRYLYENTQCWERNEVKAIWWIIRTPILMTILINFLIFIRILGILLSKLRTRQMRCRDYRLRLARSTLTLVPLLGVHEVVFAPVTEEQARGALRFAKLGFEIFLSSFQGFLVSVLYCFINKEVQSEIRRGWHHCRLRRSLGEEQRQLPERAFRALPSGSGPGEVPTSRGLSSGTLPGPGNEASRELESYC

B1: g728 (peptide)
peptide: HSQGTFTSDYSK([γGlu-Palmitoyl])YLDSERARDFVAWLVAGG-NH2
modifications: N-terminus assumed
SMILES: CCCCCCCCCCCCCCCC(=O)N[C@@H](CCC(=O)NCCCC[C@H](NC(=O)[C@H](CO)NC(=O)[C@H](Cc1ccc(O)cc1)NC(=O)[C@H](CC(=O)O)NC(=O)[C@H](CO)NC(=O)[C@@H](NC(=O)[C@H](Cc1ccccc1)NC(=O)[C@@H](NC(=O)CNC(=O)[C@H](CCC(N)=O)NC(=O)[C@H](CO)NC(=O)[C@@H](N)Cc1c[nH]cn1)[C@@H](C)O)[C@@H](C)O)C(=O)N[C@@H](Cc1ccc(O)cc1)C(=O)N[C@@H](CC(C)C)C(=O)N[C@@H](CC(=O)O)C(=O)N[C@@H](CO)C(=O)N[C@@H](CCC(=O)O)C(=O)N[C@@H](CCCNC(=N)N)C(=O)N[C@@H](C)C(=O)N[C@@H](CCCNC(=N)N)C(=O)N[C@@H](CC(=O)O)C(=O)N[C@@H](Cc1ccccc1)C(=O)N[C@H](C(=O)N[C@@H](C)C(=O)N[C@@H](Cc1c[nH]c2ccccc12)C(=O)N[C@@H](CC(C)C)C(=O)N[C@H](C(=O)N[C@@H](C)C(=O)NCC(=O)NCC(N)=O)C(C)C)C(C)C)C(=O)O
B2: g733 (peptide)
peptide: HGEGTFTSDYSKYK([γGlu-Palmitoyl])DSRRAQDFVQWLVAGG-NH2
modifications: N-terminus assumed
SMILES: CCCCCCCCCCCCCCCC(=O)N[C@@H](CCC(=O)NCCCC[C@H](NC(=O)[C@H](Cc1ccc(O)cc1)NC(=O)[C@H](CCCCN)NC(=O)[C@H](CO)NC(=O)[C@H](Cc1ccc(O)cc1)NC(=O)[C@H](CC(=O)O)NC(=O)[C@H](CO)NC(=O)[C@@H](NC(=O)[C@H](Cc1ccccc1)NC(=O)[C@@H](NC(=O)CNC(=O)[C@H](CCC(=O)O)NC(=O)CNC(=O)[C@@H](N)Cc1c[nH]cn1)[C@@H](C)O)[C@@H](C)O)C(=O)N[C@@H](CC(=O)O)C(=O)N[C@@H](CO)C(=O)N[C@@H](CCCNC(=N)N)C(=O)N[C@@H](CCCNC(=N)N)C(=O)N[C@@H](C)C(=O)N[C@@H](CCC(N)=O)C(=O)N[C@@H](CC(=O)O)C(=O)N[C@@H](Cc1ccccc1)C(=O)N[C@H](C(=O)N[C@@H](CCC(N)=O)C(=O)N[C@@H](Cc1c[nH]c2ccccc12)C(=O)N[C@@H](CC(C)C)C(=O)N[C@H](C(=O)N[C@@H](C)C(=O)NCC(=O)NCC(N)=O)C(C)C)C(C)C)C(=O)O
B3: g820 (peptide)
peptide: HSQGTFTSDYSRK([γGlu-Palmitoyl])LDSERARDFVAWLVAGG-NH2
modifications: N-terminus assumed
SMILES: CCCCCCCCCCCCCCCC(=O)N[C@@H](CCC(=O)NCCCC[C@H](NC(=O)[C@H](CCCNC(=N)N)NC(=O)[C@H](CO)NC(=O)[C@H](Cc1ccc(O)cc1)NC(=O)[C@H](CC(=O)O)NC(=O)[C@H](CO)NC(=O)[C@@H](NC(=O)[C@H](Cc1ccccc1)NC(=O)[C@@H](NC(=O)CNC(=O)[C@H](CCC(N)=O)NC(=O)[C@H](CO)NC(=O)[C@@H](N)Cc1c[nH]cn1)[C@@H](C)O)[C@@H](C)O)C(=O)N[C@@H](CC(C)C)C(=O)N[C@@H](CC(=O)O)C(=O)N[C@@H](CO)C(=O)N[C@@H](CCC(=O)O)C(=O)N[C@@H](CCCNC(=N)N)C(=O)N[C@@H](C)C(=O)N[C@@H](CCCNC(=N)N)C(=O)N[C@@H](CC(=O)O)C(=O)N[C@@H](Cc1ccccc1)C(=O)N[C@H](C(=O)N[C@@H](C)C(=O)N[C@@H](Cc1c[nH]c2ccccc12)C(=O)N[C@@H](CC(C)C)C(=O)N[C@H](C(=O)N[C@@H](C)C(=O)NCC(=O)NCC(N)=O)C(C)C)C(C)C)C(=O)O
B4: g802 (peptide)
peptide: HSQGTFTSDYSEK([γGlu-Palmitoyl])LDSERARDFVAWLVAGG-NH2
modifications: N-terminus assumed
SMILES: CCCCCCCCCCCCCCCC(=O)N[C@@H](CCC(=O)NCCCC[C@H](NC(=O)[C@H](CCC(=O)O)NC(=O)[C@H](CO)NC(=O)[C@H](Cc1ccc(O)cc1)NC(=O)[C@H](CC(=O)O)NC(=O)[C@H](CO)NC(=O)[C@@H](NC(=O)[C@H](Cc1ccccc1)NC(=O)[C@@H](NC(=O)CNC(=O)[C@H](CCC(N)=O)NC(=O)[C@H](CO)NC(=O)[C@@H](N)Cc1c[nH]cn1)[C@@H](C)O)[C@@H](C)O)C(=O)N[C@@H](CC(C)C)C(=O)N[C@@H](CC(=O)O)C(=O)N[C@@H](CO)C(=O)N[C@@H](CCC(=O)O)C(=O)N[C@@H](CCCNC(=N)N)C(=O)N[C@@H](C)C(=O)N[C@@H](CCCNC(=N)N)C(=O)N[C@@H](CC(=O)O)C(=O)N[C@@H](Cc1ccccc1)C(=O)N[C@H](C(=O)N[C@@H](C)C(=O)N[C@@H](Cc1c[nH]c2ccccc12)C(=O)N[C@@H](CC(C)C)C(=O)N[C@H](C(=O)N[C@@H](C)C(=O)NCC(=O)NCC(N)=O)C(C)C)C(C)C)C(=O)O
B5: g803 (peptide)
peptide: HSQGTFTSDYSKYK([γGlu-Palmitoyl])DSRSARDFVEWLVAGG-NH2
modifications: N-terminus assumed
SMILES: CCCCCCCCCCCCCCCC(=O)N[C@@H](CCC(=O)NCCCC[C@H](NC(=O)[C@H](Cc1ccc(O)cc1)NC(=O)[C@H](CCCCN)NC(=O)[C@H](CO)NC(=O)[C@H](Cc1ccc(O)cc1)NC(=O)[C@H](CC(=O)O)NC(=O)[C@H](CO)NC(=O)[C@@H](NC(=O)[C@H](Cc1ccccc1)NC(=O)[C@@H](NC(=O)CNC(=O)[C@H](CCC(N)=O)NC(=O)[C@H](CO)NC(=O)[C@@H](N)Cc1c[nH]cn1)[C@@H](C)O)[C@@H](C)O)C(=O)N[C@@H](CC(=O)O)C(=O)N[C@@H](CO)C(=O)N[C@@H](CCCNC(=N)N)C(=O)N[C@@H](CO)C(=O)N[C@@H](C)C(=O)N[C@@H](CCCNC(=N)N)C(=O)N[C@@H](CC(=O)O)C(=O)N[C@@H](Cc1ccccc1)C(=O)N[C@H](C(=O)N[C@@H](CCC(=O)O)C(=O)N[C@@H](Cc1c[nH]c2ccccc12)C(=O)N[C@@H](CC(C)C)C(=O)N[C@H](C(=O)N[C@@H](C)C(=O)NCC(=O)NCC(N)=O)C(C)C)C(C)C)C(=O)O
B6: g729 (peptide)
peptide: HSQGTFTSDYSKK([γGlu-Palmitoyl])LDSERAQDFVQWLVAGG-NH2
modifications: N-terminus assumed
SMILES: CCCCCCCCCCCCCCCC(=O)N[C@@H](CCC(=O)NCCCC[C@H](NC(=O)[C@H](CCCCN)NC(=O)[C@H](CO)NC(=O)[C@H](Cc1ccc(O)cc1)NC(=O)[C@H](CC(=O)O)NC(=O)[C@H](CO)NC(=O)[C@@H](NC(=O)[C@H](Cc1ccccc1)NC(=O)[C@@H](NC(=O)CNC(=O)[C@H](CCC(N)=O)NC(=O)[C@H](CO)NC(=O)[C@@H](N)Cc1c[nH]cn1)[C@@H](C)O)[C@@H](C)O)C(=O)N[C@@H](CC(C)C)C(=O)N[C@@H](CC(=O)O)C(=O)N[C@@H](CO)C(=O)N[C@@H](CCC(=O)O)C(=O)N[C@@H](CCCNC(=N)N)C(=O)N[C@@H](C)C(=O)N[C@@H](CCC(N)=O)C(=O)N[C@@H](CC(=O)O)C(=O)N[C@@H](Cc1ccccc1)C(=O)N[C@H](C(=O)N[C@@H](CCC(N)=O)C(=O)N[C@@H](Cc1c[nH]c2ccccc12)C(=O)N[C@@H](CC(C)C)C(=O)N[C@H](C(=O)N[C@@H](C)C(=O)NCC(=O)NCC(N)=O)C(C)C)C(C)C)C(=O)O
B7: g842 (peptide)
peptide: HSQGTFTSDYSRK([γGlu-Palmitoyl])LDSERARDFVAWLVAGG-OH
modifications: N-terminus assumed
SMILES: CCCCCCCCCCCCCCCC(=O)N[C@@H](CCC(=O)NCCCC[C@H](NC(=O)[C@H](CCCNC(=N)N)NC(=O)[C@H](CO)NC(=O)[C@H](Cc1ccc(O)cc1)NC(=O)[C@H](CC(=O)O)NC(=O)[C@H](CO)NC(=O)[C@@H](NC(=O)[C@H](Cc1ccccc1)NC(=O)[C@@H](NC(=O)CNC(=O)[C@H](CCC(N)=O)NC(=O)[C@H](CO)NC(=O)[C@@H](N)Cc1c[nH]cn1)[C@@H](C)O)[C@@H](C)O)C(=O)N[C@@H](CC(C)C)C(=O)N[C@@H](CC(=O)O)C(=O)N[C@@H](CO)C(=O)N[C@@H](CCC(=O)O)C(=O)N[C@@H](CCCNC(=N)N)C(=O)N[C@@H](C)C(=O)N[C@@H](CCCNC(=N)N)C(=O)N[C@@H](CC(=O)O)C(=O)N[C@@H](Cc1ccccc1)C(=O)N[C@H](C(=O)N[C@@H](C)C(=O)N[C@@H](Cc1c[nH]c2ccccc12)C(=O)N[C@@H](CC(C)C)C(=O)N[C@H](C(=O)N[C@@H](C)C(=O)NCC(=O)NCC(=O)O)C(C)C)C(C)C)C(=O)O

These binders were tested against human glucagon receptor (human, UniProt P47871 26-477) (assay: cell-based or functional assay).
Chain of human glucagon receptor (P47871 26-477): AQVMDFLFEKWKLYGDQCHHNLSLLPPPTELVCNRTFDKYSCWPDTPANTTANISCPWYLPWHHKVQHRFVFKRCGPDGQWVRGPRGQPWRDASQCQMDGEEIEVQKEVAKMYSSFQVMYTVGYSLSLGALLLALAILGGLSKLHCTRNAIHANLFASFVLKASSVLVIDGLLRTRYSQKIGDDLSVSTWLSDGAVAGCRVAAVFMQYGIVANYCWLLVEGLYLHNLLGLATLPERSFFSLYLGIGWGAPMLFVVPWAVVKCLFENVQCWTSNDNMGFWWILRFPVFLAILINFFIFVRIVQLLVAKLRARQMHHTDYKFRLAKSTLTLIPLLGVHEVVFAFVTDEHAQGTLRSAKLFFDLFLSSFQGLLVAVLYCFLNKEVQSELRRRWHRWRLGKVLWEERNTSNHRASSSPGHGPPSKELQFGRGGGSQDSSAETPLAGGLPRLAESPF

Row | cAMP EC50 (assay 1) [nM] | Binder
1 | 2.44 | B1
2 | 62 | B2
3 | 0.0117 | B3
4 | 1.81 | B4
5 | 0.0108 | B5
6 | 0.0319 | B6
7 | 0.00831 | B7

These binders were tested against T1, human glucose-dependent insulinotropic peptide (gastric inhibitory polypeptide) receptor (human) (assay: cell-based or functional assay).

Row | cAMP EC50 (assay 1) [nM] | Binder
8 | 395 | B1
9 | 817 | B2
10 | 71.1 | B3
11 | 91.2 | B4
12 | 32.9 | B5
13 | 209 | B6
14 | 88.3 | B7

Each binder was assayed against human GLP-1 receptor (human, UniProt P43220 24-463) (assay: cell-based or functional assay).
Chain of human GLP-1 receptor (P43220 24-463): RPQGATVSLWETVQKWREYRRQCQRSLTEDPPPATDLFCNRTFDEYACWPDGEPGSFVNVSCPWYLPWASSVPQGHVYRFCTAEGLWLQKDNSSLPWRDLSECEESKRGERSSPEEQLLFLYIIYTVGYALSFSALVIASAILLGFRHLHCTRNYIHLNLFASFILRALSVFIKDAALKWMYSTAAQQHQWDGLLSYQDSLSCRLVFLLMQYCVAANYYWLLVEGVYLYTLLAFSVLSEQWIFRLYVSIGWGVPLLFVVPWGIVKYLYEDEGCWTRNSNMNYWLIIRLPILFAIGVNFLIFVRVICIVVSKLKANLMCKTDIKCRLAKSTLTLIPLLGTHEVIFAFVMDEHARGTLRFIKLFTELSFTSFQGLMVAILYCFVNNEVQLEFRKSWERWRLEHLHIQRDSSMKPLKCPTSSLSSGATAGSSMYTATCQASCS

Row | cAMP EC50 (assay 1) [nM] | Binder
15 | 0.169 | B1
16 | 0.0231 | B2
17 | 0.0339 | B3
18 | 0.0964 | B4
19 | 0.0296 | B5
20 | 0.0729 | B6
21 | 0.0512 | B7
